From paper PMC9320808

What was measured:
[1] = molecular target: PD-L1-6His-tag (Programmed cell Death Ligand 1) of the Cisbio Human PD1/PD-L1 biochemical binding assay (human) (UniProt Q9NZQ7); test: AlphaScreen or HTRF
[2] = molecular target: human PD-L1 expressed on CHO-K1 cells (CHO-K1 hPD-L1) (human) (UniProt Q9NZQ7); test: radioligand binding
human PD-L1 expressed on CHO-K1 cells (CHO-K1 hPD-L1) (human), sequence (Q9NZQ7 19-290): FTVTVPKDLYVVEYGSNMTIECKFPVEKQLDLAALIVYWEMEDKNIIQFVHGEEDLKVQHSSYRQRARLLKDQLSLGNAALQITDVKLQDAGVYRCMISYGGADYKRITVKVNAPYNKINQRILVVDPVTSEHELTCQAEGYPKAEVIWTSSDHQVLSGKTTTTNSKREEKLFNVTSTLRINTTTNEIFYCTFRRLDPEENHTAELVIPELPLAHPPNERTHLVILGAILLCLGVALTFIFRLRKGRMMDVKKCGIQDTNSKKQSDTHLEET

PD-L1-6His-tag (Programmed cell Death Ligand 1) of the Cisbio Human PD1/PD-L1 biochemical binding assay (human), sequence (Q9NZQ7 19-238): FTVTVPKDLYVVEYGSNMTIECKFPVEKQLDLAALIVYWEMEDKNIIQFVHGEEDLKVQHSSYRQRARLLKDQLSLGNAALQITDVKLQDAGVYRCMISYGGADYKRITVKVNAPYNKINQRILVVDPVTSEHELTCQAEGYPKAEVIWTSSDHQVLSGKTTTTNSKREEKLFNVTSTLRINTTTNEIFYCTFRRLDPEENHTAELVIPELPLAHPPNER

BMS78, 14-mer macrocyclic peptide
IC50 [1]: 133 nM

NJMP1 (BMS78 C-terminally conjugated to Lys(DOTA)NH2) (peptide)
IC50 [1]: 242 nM

[68Ga]Ga-NJMP1 (peptide)
cell internalization %AD/10^6 cells (90 min) (%AD/10^6 cells) [2]: 1.68
membrane bound %AD/10^6 cells (90 min) (%AD/10^6 cells) [2]: 0.36

[68Ga]Ga-WL12 (WL12 with DOTAGA on Orn13, loaded with 68Ga) (peptide)
cell internalization %AD/10^6 cells (90 min) (%AD/10^6 cells) [2]: 19.2
membrane bound %AD/10^6 cells (90 min) (%AD/10^6 cells) [2]: 18.2

natGa-NJMP1 (peptide)
IC50 [1]: 25900 nM

natGa-WL12 (WL12 with DOTAGA on Orn13, loaded with natGa) (peptide)
IC50 [1]: 12.4 nM
